Results as given in paper PMC8861115, “Characterization and structural analyses of a novel glycosyltransferase acting on the β-1,2-glucosidic linkages” (The Journal of Biological Chemistry, 2022).

Target: the molecule itself
Assay: SEC; Superdex 200 10/300 GL, 0.5 mg in 500 μl loaded, 5 mM MOPS pH 7.5, 100 mM ammonium sulfate, 1 mM DTT; calibrated with standard proteins

B1: IALB_1185 protein from Ignavibacterium album (IaSGT), wild type, recombinant (enzyme)
chain: MKPHNSEKYFVKNGQPHFLISGEVHYFRINPKLWRNHLQLLKQTGADTVSTYIPWDWHEIEEDDFDFEGKTHPARNLIRFIKLCKEENLDLIVKPGPYILAEYENQGLPSWLLKKLSKNAFALDENGNVISPDLVSYLSDEFLEYTFKWYDKVMPIISKHQKEHYGPITMMQLCNEIGVFQWLSGKSDYNPKVINLYKEFIIQRYKTIEKLNSVYSTNYNSFDDLKAPSGKIKLRSDYCAYFDFHLFFREYYNKYISILKNKIRSFGINIKLTHNIPGWIYGNASELPMLISTYSEIMKNHPDIIFGLDHIPEFVSFRNAHSDLACNKILEAMQPEAPVWAAEFQAGTREHHVKAYAKDLETFYIASLAHGIKGFNYYMFSQGINPEGKGFYGKTFYFQTALDAASNKLALYDSIKKVNRFIRKEQKDLLRTNVNSEICVGFYKPYFFTELISSQLLKEKKLNVEELGLYIDPRFLREEILFNGLLRGLQTLNYNYDVVDLENCDLKSLTAYKQLWITSAEFMDAETQNLLSEFVLNGGNLILYPAVPTLDNYLNRCEILKNNFGIEFITKDSSHKVSAFGIEDVFTAFSKKQIYNDTNSKPIAFTQENEICGIRKKIGKGELTILGFAFGYTSDEHLELIDKLVKLNKIKRELFVSDKDIQFVVRENNKSRYIFFLNYHNERKTFNYRKSSELKKKKSEEISIAPFSYKVIKENK
notes: IALB_1185 protein (GH35), Ignavibacterium album DSM19864, gene ialb_1185 amplified from genomic DNA and inserted into the NdeI and XhoI sites of pET30a(+); domains in the structure: TIM barrel 6-432, Rossmann fold 438-648, Ig-like 653-716; theoretical molecular mass of the recombinant protein 84,709.883; Surmise: cloning into NdeI/XhoI of pET30a(+) would give a C-terminal His6 tag; A …
  stoichiometry N: 2
